Assay [1] has as its target T1, cereblon (E3 ubiquitin ligase).
T1 chain: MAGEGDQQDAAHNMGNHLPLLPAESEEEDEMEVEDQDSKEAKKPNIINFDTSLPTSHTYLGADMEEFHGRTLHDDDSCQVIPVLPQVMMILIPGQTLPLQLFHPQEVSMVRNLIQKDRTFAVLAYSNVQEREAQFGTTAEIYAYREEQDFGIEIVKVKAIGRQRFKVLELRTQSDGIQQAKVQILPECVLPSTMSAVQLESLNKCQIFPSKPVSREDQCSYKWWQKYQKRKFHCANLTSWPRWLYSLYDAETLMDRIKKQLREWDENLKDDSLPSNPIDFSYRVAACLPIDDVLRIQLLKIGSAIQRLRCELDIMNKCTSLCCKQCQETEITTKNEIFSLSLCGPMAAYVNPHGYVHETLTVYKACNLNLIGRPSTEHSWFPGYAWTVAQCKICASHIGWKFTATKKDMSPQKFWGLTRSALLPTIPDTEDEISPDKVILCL
Kind of assay: SPR imaging (PlexArray HT), cereblon printed on chip; ternary complex of cereblon, FoxP3 and P-FoxP3 (recombinant FoxP3 present).

Assay [2] shares this target. Kind of assay: SPR imaging (PlexArray HT), cereblon printed on chip; binary complex of cereblon and PF.

Primed or numbered codes have the meaning given here. PEG4′ = polyethylene glycol linker with 4 oxyethylene units

B1: Proteolysis-targeting chimera (PROTAC) targeting FoxP3 (Pomalidomide-PEG4-RDFQSFRKMWPFFAM) (peptide)
peptide: {pomalidomide-PEG4′}-RDFQSFRKMWPFFAM-OH
notes: Conjugate of the P60 peptide with the small molecule pomalidomide; also called P-FoxP3; PROTAC for FoxP3
Consider B1, for which the Kd – broadly, a measure of binding affinity in units of concentration – worked out at 434 nM in assay [1] and 987 nM in assay [2].
